Residue numbers refer to the chain shown, from its start. In names and notes the source's numbering stands.
B1: DC-SIGN CRD single point mutant S360A, stably expressed on HEK293T cells (receptor)
chain: MSDSKEPRLQQLGLLEEEQLRGLGFRQTRGYKSLAGCLGHGPLVLQLLSFTLLAGLLVQVSKVPSSISQEQSRQDAIYQNLTQLKAAVGELSEKSKLQEIYQELTQLKAAVGELPEKSKLQEIYQELTRLKAAVGELPEKSKLQEIYQELTWLKAAVGELPEKSKMQEIYQELTRLKAAVGELPEKSKQQEIYQELTRLKAAVGELPEKSKQQEIYQELTRLKAAVGELPEKSKQQEIYQELTQLKAAVERLCHPCPWEWTFFQGNCYFMSNSQRNWHDSITACKEVGAQLVVIKSAEEQNFLQLQSSRSNRFTWMGLSDLNQEGTWQWVDGSPLLPSFKQYWNRGEPNNVGEEDCAEFAGNGWNDDKCNLAKFWICKKSAASCSRDEEQFLSPAPATPNPPPA
notes: whole, on cells
B2: DC-SIGN CRD single point mutant V351A, stably expressed on HEK293T cells (receptor)
chain: B1 chain with V351A, A360S
notes: whole, on cells
B3: DC-SIGN CRD single point mutant D367A, stably expressed on HEK293T cells (receptor)
chain: B1 chain with A360S, D367A
notes: whole, on cells
B4: Sambucus Nigra Agglutinin (other)
chain: VTPPVYPSVSFNLTGADTYEPFLRALQEKVILGNHTAFDLPVLNPESQVSDSNRFVLVPLTNPSGDTVTLAIDVVNLYVVAFSSNGKSYFFSGSTAVQRDNLFVDTTQEELNFTGNYTSLERQVGFGRVYIPLGPKSLDQAISSLRTYTLTAGDTKPLARGLLVVIQMVSEAARFRYIELRIRTSITDASEFTPDLLMLSMENNWSSMSSEIQQAQPGGIFAGVVQLRDERNNSIEVTNFRRLFELTYIAVLLYGCAPVTSSSYSNNAIDAQIIKMPVFRGGEYEKVCSVVEVTRRISGWDGLCVDVRYGHYIDGNPVQLRPCGNECNQLWTFRTDGTIRWLGKCLTASSSVMIYDCNTVPPEATKWVVSIDGTITNPHSGLVLTAPQAAEGTALSLENNIHAARQGWTVGDVEPLVTFIVGYKQMCLRENGENNFVWLEDCVLNRVQQEWALYGDGTIRVNSNRSLCVTSEDHEPSDLIVILKCEGSGNQRWVFNTNGTISNPNAKLLMDVAQRDVSLRKIILYRPTGNPNQQWITTTHPA
notes: also called SNA

Legend:
[1] = target: T1, Recombinant HIV-1 IIIB gp120 derived from CHO cells (ImmunoDx) (HIV-1 IIIB, UniProt P04578 33-511); test: flow cytometry on HEK293T point-mutant transfectants
T1 construct: also called HIV-1 IIIB gpl20; HIV-1 gp120

[2] = target: T1, Recombinant HIV-1 IIIB gp120 derived …; test: lectin-functionalized plate, labelled glycoprotein, fluorescence read-out

Binder	binding result [1]	binding result [2]
B1	binds	
B2	binds	
B3	binds	
B4		no binding (tested: 10, 2 and 0.4 μg/ml)

Reference: patent WO2018134389A1 (dated 2018)
